Series [1] deals with wild-type Cre recombinase (P1 Bacteriophage) (UniProt P06956). Nature of the series: cell-based or functional assay.
The target of series [2] is Cre-B2 (P1 Bacteriophage) (UniProt P06956). Nature of the series: cell-based or functional assay.
The target in series [3] is Cre-B1 (P1 Bacteriophage) (UniProt P06956). Nature of the series: cell-based or functional assay.
The target in a further series is T1, Cre-E123LE-R337E.
T1 chain: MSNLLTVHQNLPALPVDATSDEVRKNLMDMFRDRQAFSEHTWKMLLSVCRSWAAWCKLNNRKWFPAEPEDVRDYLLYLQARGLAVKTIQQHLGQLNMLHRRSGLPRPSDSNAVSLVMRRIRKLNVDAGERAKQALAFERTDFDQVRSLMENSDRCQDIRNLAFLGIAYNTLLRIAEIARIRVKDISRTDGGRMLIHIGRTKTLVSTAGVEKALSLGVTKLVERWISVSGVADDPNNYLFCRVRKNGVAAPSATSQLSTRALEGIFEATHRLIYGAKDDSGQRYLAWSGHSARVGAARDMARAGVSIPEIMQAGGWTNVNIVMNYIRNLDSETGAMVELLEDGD

The target of series [4] is Cre-A2 (P1 Bacteriophage) (UniProt P06956). Nature of the series: cell-based or functional assay.
In a further series the target is T2, Cre-B2.
T2 chain: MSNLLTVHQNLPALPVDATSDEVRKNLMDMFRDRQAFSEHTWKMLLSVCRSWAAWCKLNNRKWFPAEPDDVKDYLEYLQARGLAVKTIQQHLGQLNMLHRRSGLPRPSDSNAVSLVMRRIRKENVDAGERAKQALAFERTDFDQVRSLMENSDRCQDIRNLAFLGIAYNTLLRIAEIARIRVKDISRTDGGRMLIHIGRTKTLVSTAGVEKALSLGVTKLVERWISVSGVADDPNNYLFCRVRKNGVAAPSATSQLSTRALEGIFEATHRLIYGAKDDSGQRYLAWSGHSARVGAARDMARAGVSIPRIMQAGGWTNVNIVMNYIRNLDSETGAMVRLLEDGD

On to “wild-type Cre recombinase (from UniProt P06956 1-343) (enzyme)”, for which, in series [1], the RFP positive cells of 7000 sorted, Ai14 mouse ES reporter cells, promoter hbb + cmv, replicate 1 worked out at 3910 cells; the RFP positive cells of 7000 sorted, Ai14 mouse ES reporter cells, promoter hbb + cmv, replicate 2 was found to be 4220 cells; the RFP positive cells of 7000 sorted, Ai14 mouse ES reporter cells, promoter hbb + cmv, replicate 3 was found to be 4310 cells; the RFP positive cells of 7000 sorted, Ai14 mouse ES reporter cells, promoter hbb + sp1, replicate 1 came out at 3820 cells. In series [1], the RFP positive cells of 7000 sorted, Ai14 mouse ES reporter cells, promoter hbb + sp1, replicate 2 came out at 3800 cells; the RFP positive cells of 7000 sorted, Ai14 mouse ES reporter cells, promoter hbb + sp1, replicate 3 is 4020 cells; the RFP positive cells of 7000 sorted, Ai14 mouse ES reporter cells, promoter hbb, replicate 1 came out at 372 cells; the RFP positive cells of 7000 sorted, Ai14 mouse ES reporter cells, promoter hbb, replicate 2 amounted to 391 cells. The RFP positive cells of 7000 sorted, Ai14 mouse ES reporter cells, promoter hbb, replicate 3 in series [1] stood at 408 cells.

B1: Cre mutant with only the round 2 mutation E308R (protein)
chain: MSNLLTVHQNLPALPVDATSDEVRKNLMDMFRDRQAFSEHTWKMLLSVCRSWAAWCKLNNRKWFPAEPEDVRDYLLYLQARGLAVKTIQQHLGQLNMLHRRSGLPRPSDSNAVSLVMRRIRKENVDAGERAKQALAFERTDFDQVRSLMENSDRCQDIRNLAFLGIAYNTLLRIAEIARIRVKDISRTDGGRMLIHIGRTKTLVSTAGVEKALSLGVTKLVERWISVSGVADDPNNYLFCRVRKNGVAAPSATSQLSTRALEGIFEATHRLIYGAKDDSGQRYLAWSGHSARVGAARDMARAGVSIPRIMQAGGWTNVNIVMNYIRNLDSETGAMVRLLEDGD
With B1, the “recombinase activity in vitro” value was “The salt-bridge swap from round 2 alone yields two Cre mutants with reduced but clear activity (data not shown)”.

B2: Cre-B2 (protein)
chain: MSNLLTVHQNLPALPVDATSDEVRKNLMDMFRDRQAFSEHTWKMLLSVCRSWAAWCKLNNRKWFPAEPDDVKDYLEYLQARGLAVKTIQQHLGQLNMLHRRSGLPRPSDSNAVSLVMRRIRKENVDAGERAKQALAFERTDFDQVRSLMENSDRCQDIRNLAFLGIAYNTLLRIAEIARIRVKDISRTDGGRMLIHIGRTKTLVSTAGVEKALSLGVTKLVERWISVSGVADDPNNYLFCRVRKNGVAAPSATSQLSTRALEGIFEATHRLIYGAKDDSGQRYLAWSGHSARVGAARDMARAGVSIPRIMQAGGWTNVNIVMNYIRNLDSETGAMVRLLEDGD
Regarding B2, the “recombinase activity in vitro (loxP excision, gel)” value was “All Cre-B mutants are inactive in isolation”. In addition, in series [2], the RFP positive cells of 7000 sorted, Ai14 mouse ES reporter cells, promoter hbb + cmv, replicate 1 worked out at 2 cells; the RFP positive cells of 7000 sorted, Ai14 mouse ES reporter cells, promoter hbb + cmv, replicate 2 stood at 2 cells; the RFP positive cells of 7000 sorted, Ai14 mouse ES reporter cells, promoter hbb + cmv, replicate 3 was 4 cells; the RFP positive cells of 7000 sorted, Ai14 mouse ES reporter cells, promoter hbb + sp1, replicate 1 amounted to 2 cells. In addition, in series [2], the RFP positive cells of 7000 sorted, Ai14 mouse ES reporter cells, promoter hbb + sp1, replicate 2 is 1 cells; the RFP positive cells of 7000 sorted, Ai14 mouse ES reporter cells, promoter hbb + sp1, replicate 3 is 3 cells; the RFP positive cells of 7000 sorted, Ai14 mouse ES reporter cells, promoter hbb, replicate 1 worked out at 0 cells; the RFP positive cells of 7000 sorted, Ai14 mouse ES reporter cells, promoter hbb, replicate 2 worked out at 0 cells. The molecule also yielded an RFP positive cells of 7000 sorted, Ai14 mouse ES reporter cells, promoter hbb, replicate 3 in series [2] of 1 cells.

B3: Cre mutant with only the round 2 mutation R337E (protein)
chain: MSNLLTVHQNLPALPVDATSDEVRKNLMDMFRDRQAFSEHTWKMLLSVCRSWAAWCKLNNRKWFPAEPEDVRDYLLYLQARGLAVKTIQQHLGQLNMLHRRSGLPRPSDSNAVSLVMRRIRKENVDAGERAKQALAFERTDFDQVRSLMENSDRCQDIRNLAFLGIAYNTLLRIAEIARIRVKDISRTDGGRMLIHIGRTKTLVSTAGVEKALSLGVTKLVERWISVSGVADDPNNYLFCRVRKNGVAAPSATSQLSTRALEGIFEATHRLIYGAKDDSGQRYLAWSGHSARVGAARDMARAGVSIPEIMQAGGWTNVNIVMNYIRNLDSETGAMVELLEDGD
Consider B3, for which the “recombinase activity in vitro” value is listed as “The salt-bridge swap from round 2 alone yields two Cre mutants with reduced but clear activity (data not shown)”.

B4: Cre-B1 (protein)
chain: MSNLLTVHQNLPALPVDATSDEVRKNLMDMFRDRQAFSEHTWKMLLSVCRSWAAWCKLNNRKWFPAEPDDVKDYLEYLQARGLAVKTIQQHLGQLNMLHRRSGLPRPSDSNAVSLVMRRIRKENVDAGERAKQALAFERTDFDQVRSLMENSDRCQDIRNLAFLGIAYNTLLRIAEIARIRVKDISRTDGGRMLIHIGRTKTLVSTAGVEKALSLGVTKLVERWISVSGVADDPNNYLFCRVRKNGVAAPSATSQLSTRALEGIFEATHRLIYGAKDDSGQRYLAWSGHSARVGAARDMARAGVSIPEIMQAGGWTNVNIVMNYIRNLDSETGAMVRLLEDGD
On to B4, for which the “recombinase activity in vitro (loxP excision, gel)” value is “All Cre-B mutants are inactive in isolation”. In addition, in series [3], the RFP positive cells of 7000 sorted, Ai14 mouse ES reporter cells, promoter hbb + cmv, replicate 1 came out at 1240 cells; the RFP positive cells of 7000 sorted, Ai14 mouse ES reporter cells, promoter hbb + cmv, replicate 2 worked out at 1260 cells; the RFP positive cells of 7000 sorted, Ai14 mouse ES reporter cells, promoter hbb + cmv, replicate 3 stood at 1120 cells; the RFP positive cells of 7000 sorted, Ai14 mouse ES reporter cells, promoter hbb + sp1, replicate 1 was 1150 cells. Besides, in series [3], the RFP positive cells of 7000 sorted, Ai14 mouse ES reporter cells, promoter hbb + sp1, replicate 2 was 1080 cells; the RFP positive cells of 7000 sorted, Ai14 mouse ES reporter cells, promoter hbb + sp1, replicate 3 amounted to 1200 cells; the RFP positive cells of 7000 sorted, Ai14 mouse ES reporter cells, promoter hbb, replicate 1 amounted to 97 cells; the RFP positive cells of 7000 sorted, Ai14 mouse ES reporter cells, promoter hbb, replicate 2 is 102 cells. This molecule also gave an RFP positive cells of 7000 sorted, Ai14 mouse ES reporter cells, promoter hbb, replicate 3 in series [3] of 85 cells.

B5: Cre-E123L-E308R (protein)
chain: MSNLLTVHQNLPALPVDATSDEVRKNLMDMFRDRQAFSEHTWKMLLSVCRSWAAWCKLNNRKWFPAEPEDVRDYLLYLQARGLAVKTIQQHLGQLNMLHRRSGLPRPSDSNAVSLVMRRIRKLNVDAGERAKQALAFERTDFDQVRSLMENSDRCQDIRNLAFLGIAYNTLLRIAEIARIRVKDISRTDGGRMLIHIGRTKTLVSTAGVEKALSLGVTKLVERWISVSGVADDPNNYLFCRVRKNGVAAPSATSQLSTRALEGIFEATHRLIYGAKDDSGQRYLAWSGHSARVGAARDMARAGVSIPRIMQAGGWTNVNIVMNYIRNLDSETGAMVRLLEDGD
For the molecule B5, the “recombinase activity in vitro (loxP excision, gel)” value in the series with Cre-E123LE-R337E was “In vitro assays indicated that these mutants do not form an obligate heterotetrameric pair”.

B6: Cre-A2 (protein)
chain: MSNLLTVHQNLPALPVDATSDEVRRNLMRMFELRRAFSEHTWKMLLSVCRSWAAWCKLNNRKWFPAEPEDVRDYLLYLQARGLAVKTIQQHLGQLNMLHRRSGLPRPSDSNAVSLVMRRIRKENVDAGERAKQALAFERTDFDQVRSLMENSDRCQDIRNLAFLGIAYNTLLRIAEIARIRVKDISRTDGGRMLIHIGRTKTLVSTAGVEKALSLGVTKLVERWISVSGVADDPNNYLFCRVRKNGVAAPSATSQLSTRALEGIFEATHRLIYGAKDDSGQRYLAWSGHSARVGAARDMARAGVSIPEIMQAGGWTNVNIVMNYIRNLDSETGAMVELLEDGD
As for B6, the “recombinase activity in vitro (loxP excision, gel)” value is listed as “while its activity is reduced relative to Cre-A1, the Cre-A2 monomer was still capable of forming a functional homotetrameric complex”. In series [4], the RFP positive cells of 7000 sorted, Ai14 mouse ES reporter cells, promoter hbb + cmv, replicate 1 came out at 1130 cells; the RFP positive cells of 7000 sorted, Ai14 mouse ES reporter cells, promoter hbb + cmv, replicate 2 was 1120 cells; the RFP positive cells of 7000 sorted, Ai14 mouse ES reporter cells, promoter hbb + cmv, replicate 3 came to 1050 cells; the RFP positive cells of 7000 sorted, Ai14 mouse ES reporter cells, promoter hbb + sp1, replicate 1 came out at 1050 cells. In addition, in series [4], the RFP positive cells of 7000 sorted, Ai14 mouse ES reporter cells, promoter hbb + sp1, replicate 2 worked out at 1000 cells; the RFP positive cells of 7000 sorted, Ai14 mouse ES reporter cells, promoter hbb + sp1, replicate 3 was determined as 1120 cells; the RFP positive cells of 7000 sorted, Ai14 mouse ES reporter cells, promoter hbb, replicate 1 amounted to 47 cells; the RFP positive cells of 7000 sorted, Ai14 mouse ES reporter cells, promoter hbb, replicate 2 was 52 cells. This molecule returned an RFP positive cells of 7000 sorted, Ai14 mouse ES reporter cells, promoter hbb, replicate 3 in series [4] of 41 cells. In series [2], the RFP positive cells of 7000 sorted, Ai14 mouse ES reporter cells, promoter hbb + cmv, replicate 1 came to 3180 cells; the RFP positive cells of 7000 sorted, Ai14 mouse ES reporter cells, promoter hbb + cmv, replicate 2 stood at 3410 cells; the RFP positive cells of 7000 sorted, Ai14 mouse ES reporter cells, promoter hbb + cmv, replicate 3 was 3700 cells; the RFP positive cells of 7000 sorted, Ai14 mouse ES reporter cells, promoter hbb + sp1, replicate 1 came to 3220 cells. In addition, in series [2], the RFP positive cells of 7000 sorted, Ai14 mouse ES reporter cells, promoter hbb + sp1, replicate 2 is 3340 cells; the RFP positive cells of 7000 sorted, Ai14 mouse ES reporter cells, promoter hbb + sp1, replicate 3 came to 3590 cells; the RFP positive cells of 7000 sorted, Ai14 mouse ES reporter cells, promoter hbb, replicate 1 is 573 cells; the RFP positive cells of 7000 sorted, Ai14 mouse ES reporter cells, promoter hbb, replicate 2 is 528 cells. The molecule further displayed an RFP positive cells of 7000 sorted, Ai14 mouse ES reporter cells, promoter hbb, replicate 3 in series [2] of 607 cells. Moreover, the “recombinase activity in vitro (loxP excision, gel)” value in the series with Cre-B2 is given as “the Cre-A2+Cre-B2 combination exhibited strong recombinase activity”.

These data come from patent publication US20170058297A1.
